The text below walks through data of publication PMC6380602, “The polymeric immunoglobulin receptor-like protein from Marsupenaeus japonicus is a receptor for white spot syndrome virus infection” (PLoS Pathogens, 2019).

Usually stoichiometry N stands for the number of molecules, sites or subunits per partner or assembly.

The data set concerns the molecule itself. Put plainly: cross-linking; BS3 (5 mM, 2 h, room temperature) on hemocytes of shrimp 30 min after WSSV injection, SDS-PAGE, western blotting with anti-MjpIgR antibodies; oligomer size by molecular mass.

B1: native MjpIgR (Marsupenaeus japonicus polymeric immunoglobulin receptor-like protein) (receptor, UniProt A0A3S8D7Y1 1-562, looked up)
chain: QEYSVDEPNNRDVVFNGVQSSDVSLIFDDADIIVNPGERLDLNCGFQGQYRHCIWELEGAKPIQVQDVYDDVHPGMSRPEVSEGNECGIVINSVSTEQHGKWTCRVFITGNSLEGSKKVIVTVKPTYPILEVDNSQLLEVTSDAETPVKCVVAAARPAVGIRWFLGDKDVTVMAETEETPTDNEGMYKSISTLRRTFEPMENGMMLVCSVSHKTLTVPENASIPLNVVFKPVEKPVSTYYQIRPGSDYEVKLNFSANPPPTRKEWRYGDTFQNIAVSIEIPGAKDRYETYIEELGNGMYTATLRIAGFKEEDANQRYMLVVQNDLGETSYKVRLSMDDAPKDGDSETRDHDKNPSTEYSVSEGIVFDDDTMSNTLSGGAVAGIVIVVLIIVTAVAAAGYARYRQMFCFAPVVTPDPEEGKETKEEHSDTESARGANTTRAANLKNSLGRLTQVFKKPKKEQETKLENIGDDEKRSLTTEDPKKGSPIKEQNVDDKEVVYAELDLGKSESDKKTEVKAEDKTEYAQIVGTVTDNREDEKKE
notes: also called pIgR-like protein; source: endogenous, hemocytes of M. japonicus 30 min after WSSV injection
Take B1: the “stoichiometry N” value worked out at 4.
